From the supplement of paper PMC9732359
± gives the uncertainty stated by the source.

assay: protein stability index of a GFP-peptide fusion (yeast GPS) (PSI 1-4); higher = more stable; sorted into four equal gates, so the index is relative within each strain; settings: doa10∆
How it was run: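 Mid-log yeast cultures in leucine-free medium, carrying a pooled plasmid library, were sorted into four equal gates by their GFP/Cherry fluorescence ratio. Each plasmid expressed Cherry along with GFP fused upstream of a tiled 17-residue yeast protein peptide. Plasmids recovered from each gate were PCR-amplified and Illumina-sequenced, with reads assigned to strains by barcodes. The protein stability index was obtained by summing each gate's read frequency weighted by its gate number.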

| Sequence | protein stability index |
| --- | --- |
| LYPSFKPIYKDTRFGGR [SSN2] | 3.17 ± 0.15 |
| LYSYLIKENFFERIMIL [YJL039C/NUP192] | 1.48 ± 0.063 |
| MAAQKSFRIKQKMAKAK [RPL39] | 2.75 ± 0.072 |
| MAFEASAAAAGNRNSSS [BRR2] | 3.12 ± 0.11 |
| MAGLSFDNYQRNNFLAE [PUP1] | 3.61 ± 0.17 |
| MAHFKEYQVIGRRLPTE [RPL20A] | 2.21 ± 0.071 |
| MAKFLKAGKVAVVVRGR [RPL27A] | 1.53 ± 0.093 |
| MAKRVADAQIQRETYDS [YLR335W/NUP2] | 2.21 ± 0.22 |
| MANDLVQARDNSQVFGV [RPS14B] | 2.39 ± 0.076 |
| MANLSQIYTQRAYMRPL [SCL1] | 1.66 ± 0.06 |
| MAREHAPSIIFMDEIDS [RPT6] | 2.14 ± 0.073 |
| MARYGATSTNPAKSASA [RPL17A] | 2.59 ± 0.056 |
| MASTAVMMDVDSSGVND [RPN3] | 3.17 ± 0.19 |
| MAYTSHLSSKTGLHFGR [QCR10] | 3.08 ± 0.16 |
| MDDEEWRSKRIEQLFPV [RPC53] | 3.24 ± 0.085 |
| MDLFMSTLGDCLGIKDE [GAL11] | 3.54 ± 0.25 |
| MDNKTPVTLAKVIKVLG [RPS28A] | 1.16 ± 0.12 |
| MDRTQTFIKDCLFTKCL [POP4] | 1.75 ± 0.05 |
| MDWLDNWGRKEHDLLRQ [ITC1] | 3.22 ± 0.19 |
| MERLQRLMMNSKVGSAD [RPN11] | 3.28 ± 0.15 |
| MEYLKSSKSLDLNTRIS [RPN5] | 2.83 ± 0.057 |
| MFHGAKGPLLIERIGHL [PCI8] | 2.5 ± 0.22 |
| MGGIREKKAEYFAKLRE [RPP0] | 3.48 ± 0.081 |
| MGGPKQKGITSYAVSPY [QCR8] | 2.46 ± 0.17 |
| MGGVSALRGMFKDRFKD [FAS2] | 3.56 ± 0.068 |

| Sequence | protein stability index |
| --- | --- |
| MGIVQDTLCGIRKLTLR [RPO21] | 2.89 ± 0.068 |
| MGKKTFREWQYFKLSIT [POP8] | 1.5 ± 0.046 |
| MGKRVDFSARTVISGDP [RPO21] | 2.98 ± 0.087 |
| MGQGLCNNINKGLKEND [BRR2] | 3.13 ± 0.095 |
| MHDSNLQNNSDSESDSD [SKP1] | 2.94 ± 0.11 |
| MHKQLAYILAAQKTSFE [RPN1] | 2.37 ± 0.056 |
| MHRPVHFLQFSELAGDE [PRP8] | 3.23 ± 0.081 |
| MIIDEGHRMKNAQSKLS [SNF2] | 1.45 ± 0.072 |
| MINGVYYNEISRDLDIS [POP6] | 2.09 ± 0.26 |
| MITKRILEVGALASIQT [RPN12] | 1.63 ± 0.083 |
| MIVPVRCFSCGKVVGDK [RPB10] | 2.64 ± 0.17 |
| MKYAVSKTSENKVSNTV [SIR2] | 2.99 ± 0.13 |
| MLRRHAAPPSTNFEILN [DIS3] | 1.87 ± 0.11 |
| MMVNISVLISIPLDNYD [PCI8] | 1.43 ± 0.038 |
| MNVSTSTFQTRRRRLKK [RPB4] | 3.39 ± 0.2 |
| MNYLLDNKINEIKLLEI [CSI1] | 2.91 ± 0.12 |
| MPNDNKTPNRSSTPKFT [SIR4] | 2.66 ± 0.1 |
| MPQSFTSIARIGDYILK [QCR7] | 3.35 ± 0.2 |
| MPYTINELLEMVGLASG [BRR2] | 2.56 ± 0.049 |
| MQAIADSFSVPNRLVKE [PRE2] | 2.94 ± 0.14 |
| MQKHGYIGEFEYIDDHR [RPS22A] | 3.16 ± 0.083 |
| MQSTSPAVKQWDLLPEP [SWI1] | 2.73 ± 0.19 |
| MRELGLIQSTEFPSITS [YOR098C/NUP1] | 3.12 ± 0.1 |
| MRILPRETDPLVYNMTS [RPT4] | 3.07 ± 0.078 |
| MSAAPVQDKDTLSNAER [GAL11] | 3.6 ± 0.15 |

| Sequence | protein stability index |
| --- | --- |
| MSAKAQNPMRDLKIEKL [RPL11A] | 3.39 ± 0.16 |
| MSASNANDFQLTIVTCK [SRB8] | 2.33 ± 0.044 |
| MSDFQKEKVEEQEQQQQ [RPS20] | 2.87 ± 0.15 |
| MSEQQWREQLRNRDIAL [ROX3] | 2.98 ± 0.071 |
| MSGGKGGKAGSAAKASQ [HTA1] | 3.18 ± 0.1 |
| MSKIQVAHSSRLANLID [SMB1] | 1.47 ± 0.096 |
| MSNQALYEKLEQTRTIL [SRB6] | 3.11 ± 0.3 |
| MSPFLRKVVKPSSLNSD [SRB4] | 2.41 ± 0.058 |
| MSQAVNAKKRVFKTHSY [RPS15] | 2.57 ± 0.055 |
| MSSNTSSVMSSPRVEKR [YOR098C/NUP1] | 3.18 ± 0.084 |
| MSTDVAAAQAQSKIDLT [SEM1] | 2.91 ± 0.079 |
| MSTESALSYAALILADS [RPP1A] | 1.75 ± 0.062 |
| MTAMRLMLKKLKNSIMS [YML031W/NDC1] | 1.6 ± 0.085 |
| MTAVRRSTRIRTKSQVI [IRR1] | 2.9 ± 0.15 |
| MTLEDNNVTSNPSEFTP [SSN2] | 2.75 ± 0.069 |
| MTTPQNISSSQQLLPAP [DSN1] | 2.82 ± 0.049 |
| MTTQQEEQRSDTKNSKS [ISW2] | 3.26 ± 0.17 |
| MTVAHLIECLLSKVAAL [RPB2] | 1.97 ± 0.084 |
| MVEGDSYVETLDSMIEL [MED1] | 3.25 ± 0.084 |
| MVGLASGNDSMAGKVLI [BRR2] | 3.24 ± 0.1 |
| MVNIGLHNLNEYQIVYY [RGR1] | 1.65 ± 0.14 |
| MVVQKYKLSTVVLRLYL [GRR1] | 1.66 ± 0.069 |
| MWSVARAGQRGYHSRTS [RPL3] | 2.86 ± 0.11 |
| NAGPNSNIPNLLRNLES [YDL088C/ASM4] | 2.35 ± 0.043 |
| NANDETTAVEDEDDDLD [RPB4] | 3.47 ± 0.1 |

| Sequence | protein stability index |
| --- | --- |
| NATLQALYRVNDLRDMI [UBP6] | 2.74 ± 0.096 |
| NAVISHANAAAVYFADT [SIN4] | 2.03 ± 0.049 |
| NAVLGLGDMAVCFNNLV [YCS4] | 2.71 ± 0.097 |
| NDEGVWDLVDERTKQRT [PRP8] | 3.19 ± 0.12 |
| NDIPQTESPLKTVDSSI [SSN2] | 2.99 ± 0.071 |
| NDLIVNYEDLATTQAAS [BRN1] | 2.98 ± 0.07 |
| NDNNSPHTPVTRKGYIP [YLR018C/POM34] | 3.1 ± 0.081 |
| NDQDMFTIVSLVQLKKF [YML103C/NUP188] | 2.18 ± 0.12 |
| NDQVEKDAEDETSSDGS [RPN1] | 2.63 ± 0.15 |
| NDSNPSFSFSIPSKNTP [YLR335W/NUP2] | 2.42 ± 0.048 |
| NDTLPDEISPELLSKYK [SNU114] | 2.9 ± 0.067 |
| NEAALVVNITHHELVPK [RPB5] | 2.93 ± 0.09 |
| NECQRLQNIVMDCTKEE [YIL149C/MLP2] | 2.61 ± 0.093 |
| NEDDLTVKLTEIVWTSS [RPO31] | 2.89 ± 0.093 |
| NEEAEARRLKNRAARDR [RPL19A] | 3.16 ± 0.13 |
| NEHSTSYTFRSEKGLLS [FAS1] | 2.6 ± 0.047 |
| NEKKTETNAKPFSFSSA [YLR335W/NUP2] | 3.32 ± 0.11 |
| NEKRYATASAIAATAVA [RPL4A] | 2.29 ± 0.087 |
| NEKVAVMRNTYNTRKNA [GAL11] | 2.76 ± 0.14 |
| NELLEMVGLASGNDSMA [BRR2] | 2.59 ± 0.094 |
| NELLKCKDDVQLQKILE [MTW1] | 2.97 ± 0.057 |
| NEPAARLGSEADAKAFL [FAS2] | 3.45 ± 0.065 |
| NEPTQKDEEETEYFENK [DSN1] | 3.58 ± 0.27 |
| NERLEINQEKPVKLDEN [SIR4] | 3.19 ± 0.17 |
